Data: PMC3561363, “A Novel Retro-Inverso Peptide Inhibitor Reduces Amyloid Deposition, Oxidation and Inflammation and Stimulates Neurogenesis in the APPswe/PS1ΔE9 Mouse Model of Alzheimer’s Disease” (PLoS ONE, 2013)

Target: T1, Aβ(1–42) (UniProt P05067 672-713)
T1 construct: also called Aβ42; β-amyloid (Aβ) peptide; source: bought: rPeptide (recombinant Aβ42, Ultrapure)
Test: SPR; Aβ42 fibrils immobilised by amine coupling on a COOH5 chip (~5,000 RU), Sensi Q; RI-OR2-TAT injected at 1, 3 and 6 µM in PBS with 0.005% Tween 20 for 5 min at 30 µl/min; empty reference surface subtracted; each concentration fitted separately, 1:1 Langmuir model; apparent
Conditions: both partners purified

B1: RI-OR2-TAT (Ac-rGffvlkGrrrrqrrkkrGy-NH2) (peptide)
peptide: RGFFVLKGRRRRQRRKKRGY
HELM: PEPTIDE1{[ac].[dR].G.[dF].[dF].[dV].[dL].[dK].G.[dR].[dR].[dR].[dR].[dQ].[dR].[dR].[dK].[dK].[dR].G.[dY].[am]}$$$$V2.0
SMILES: CC(=O)N[C@H](CCCNC(=N)N)C(=O)NCC(=O)N[C@H](Cc1ccccc1)C(=O)N[C@H](Cc1ccccc1)C(=O)N[C@@H](C(=O)N[C@H](CC(C)C)C(=O)N[C@H](CCCCN)C(=O)NCC(=O)N[C@H](CCCNC(=N)N)C(=O)N[C@H](CCCNC(=N)N)C(=O)N[C@H](CCCNC(=N)N)C(=O)N[C@H](CCCNC(=N)N)C(=O)N[C@H](CCC(N)=O)C(=O)N[C@H](CCCNC(=N)N)C(=O)N[C@H](CCCNC(=N)N)C(=O)N[C@H](CCCCN)C(=O)N[C@H](CCCCN)C(=O)N[C@H](CCCNC(=N)N)C(=O)NCC(=O)N[C@H](Cc1ccc(O)cc1)C(N)=O)C(C)C
notes: source: synthetic peptide, custom made by Cambridge Peptides (>95% purity)
  Kd: 58 to 125 nM
  koff: 0.00037 s⁻¹
  kon: 3680 M⁻¹ s⁻¹
